Results as given in article PMC5134900 (Cell, 2016).
Where two headings read alike, the source gives them in different places.

T1: SIRT3-FLAG (human, UniProt Q9NTG7 118-399)
T1 sequence (looked up): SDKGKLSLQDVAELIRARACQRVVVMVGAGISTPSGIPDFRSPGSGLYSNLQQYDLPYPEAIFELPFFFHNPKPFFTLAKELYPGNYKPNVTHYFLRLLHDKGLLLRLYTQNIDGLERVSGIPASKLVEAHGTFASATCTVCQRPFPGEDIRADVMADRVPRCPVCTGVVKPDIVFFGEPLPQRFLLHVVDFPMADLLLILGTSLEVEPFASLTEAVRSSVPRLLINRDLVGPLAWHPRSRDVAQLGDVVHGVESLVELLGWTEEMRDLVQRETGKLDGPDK


Columns and labels:
[1] = molecular target: SIRT3-HA (HeLa) (human); assay: proximity ligation
[2] = molecular target: T1, SIRT3-FLAG; assay: BLI
[3] = molecular target: T1, SIRT3-FLAG; assay: BLI; remark: listed apart in the source

| Binder | PLA signals per cell (signals per cell) [1] | percent of cells with PLA signal [1] [%] | Kd [2] [nM] | Kd [3] [nM] |
| --- | --- | --- | --- | --- |
| ATP5O (endogenous, HeLa) (natural protein) FAKLVRPPVQVYGIEGRYATALYSAASKQNKLEQVEKELLRVAQILKEPKVAASVLNPYVKRSIKVKSLNDITAKERFSPLTTNLINLLAENGRLSNTQGVVSAFSTMMSVHRGEVPCTVTSASPLEEATLSELKTVLKSFLSQGQVLKLEAKTDPSILGGMIVRIGEKYVDMSVKTKIQKLGRAMREIV | < 10 | 40 |  |  |
| ATP5O (recombinant) (domain or fragment, human, UniProt P48047 46-213, looked up) YSAASKQNKLEQVEKELLRVAQILKEPKVAASVLNPYVKRSIKVKSLNDITAKERFSPLTTNLINLLAENGRLSNTQGVVSAFSTMMSVHRGEVPCTVTSASPLEEATLSELKTVLKSFLSQGQVLKLEAKTDPSILGGMIVRIGEKYVDMSVKTKIQKLGRAMREIV |  |  | 400 | 100 |
